From patent publication US20180169233A1 (MOSAIC BIOMEDICALS S L, published 2018)

Target: human LIF (source not stated) (human, UniProt P15018 23-202)
Assay: cell-based or functional assay

Chain of human LIF (source not stated) (P15018 23-202 limits assumed): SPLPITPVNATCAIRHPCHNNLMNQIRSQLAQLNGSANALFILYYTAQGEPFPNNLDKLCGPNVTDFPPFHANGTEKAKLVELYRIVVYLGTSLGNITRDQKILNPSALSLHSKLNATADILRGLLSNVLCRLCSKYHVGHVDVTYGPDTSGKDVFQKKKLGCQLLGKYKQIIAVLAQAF

- IC50 for biological inhibition (pSTAT3, U-251 cells, serum starved, endogenous LIF): 490 picomolar
B1: h5D8 (humanized 5D8 comprising H2 and L2) (antibody, human IgG1, kappa, V domains shown)
VH: QVQLQESGGGLVKPGGSLRLSCAASGFTFSHAWMHWVRQAPGKGLEWVGQIKAKSDDYATYYAESVKGRFTISRDDSKNTLYLQMNSLKTEDTAVYYCTCWEWDLDFWGQGTMVTVSS
VL: DIVMTQTPLSSPVTLGQPASISCRSSQSLLDSDGHTYLNWLQQRPGQPPRLLIYSVSNLESGVPDRFSGSGAGTDFTLKISRVEAEDVGVYYCMQATHAPPYTFGQGTKLEIKR
